Laboratory results published in patent US20140017249A1.

Biological target: IL-1 receptor (UniProt P14778)
Assay: cell-based or functional assay

Chain of UniProt P14778 (P14778 18-569 limits assumed): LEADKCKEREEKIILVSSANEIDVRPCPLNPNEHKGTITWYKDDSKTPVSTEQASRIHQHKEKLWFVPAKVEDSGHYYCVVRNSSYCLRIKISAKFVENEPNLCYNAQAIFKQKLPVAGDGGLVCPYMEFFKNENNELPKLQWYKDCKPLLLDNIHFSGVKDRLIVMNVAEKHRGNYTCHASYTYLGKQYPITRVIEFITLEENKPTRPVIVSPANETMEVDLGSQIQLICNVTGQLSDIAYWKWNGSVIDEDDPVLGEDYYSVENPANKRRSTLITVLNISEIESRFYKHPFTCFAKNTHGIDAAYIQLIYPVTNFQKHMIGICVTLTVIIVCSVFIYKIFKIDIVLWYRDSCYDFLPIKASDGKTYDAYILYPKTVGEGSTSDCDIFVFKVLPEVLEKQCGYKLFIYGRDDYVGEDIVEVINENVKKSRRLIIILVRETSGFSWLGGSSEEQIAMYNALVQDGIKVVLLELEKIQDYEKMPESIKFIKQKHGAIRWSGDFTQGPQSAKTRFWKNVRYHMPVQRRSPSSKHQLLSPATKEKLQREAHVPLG

IC50 (pM): inhibition of IL-8 released by IL-1β stimulation, human whole blood, 100 pM rhIL-1β: 53.4 pM
Substance: Kineret® (anakinra) (from UniProt P18510 26-177) (ligand)
